The record followed here is patent publication EP4534564A1 (ImmuneOnco Biopharmaceuticals (Shanghai) Inc., dated 2025).

Assay [1] deals with recombinant human VEGF-165 protein (Cat#11066-HNAH, Sino Biologicals) (human, UniProt P15692-4 27-191). The assay is described as follows: ELISA, VEGF-165 coated 50 ng/well.
The target of assay [2] is PD-L1 on CHO-PD-L1 cells (Cat#YMAK-C006, ImmuneOnco) (UniProt Q9NZQ7 19-290, limits assumed). The assay is described as follows: cell-based or functional assay.
Assay [3] deals with T1, monkey PD-L1 (Cat#90251-C08H, sino Biological) (monkey, UniProt G7PSE7 19-238).
T1 construct: also called PD-L1-his
Kind of assay: BLI (Gator), human Fc probe, Kinetics Assay mode, 25 C.

T1 sequence (G7PSE7 entry or part of it C08H C08H limits assumed, form in doubt): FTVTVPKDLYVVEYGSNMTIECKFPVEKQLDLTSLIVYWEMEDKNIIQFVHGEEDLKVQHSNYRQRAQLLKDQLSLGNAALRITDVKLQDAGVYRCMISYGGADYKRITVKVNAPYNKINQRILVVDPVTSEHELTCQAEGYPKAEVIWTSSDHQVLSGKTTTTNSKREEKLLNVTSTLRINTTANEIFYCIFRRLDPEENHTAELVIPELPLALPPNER
Sequence of recombinant human VEGF-165 protein (Cat#11066-HNAH, Sino Biologicals) (P15692 other isoform, or with tags, fused parts or gaps limits assumed): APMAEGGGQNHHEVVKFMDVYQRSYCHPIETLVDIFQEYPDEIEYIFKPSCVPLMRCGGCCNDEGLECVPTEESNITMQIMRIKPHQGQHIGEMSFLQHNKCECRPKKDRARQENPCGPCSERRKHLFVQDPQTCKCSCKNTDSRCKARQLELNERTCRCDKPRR
Sequence of PD-L1 on CHO-PD-L1 cells (Cat#YMAK-C006, ImmuneOnco) (Q9NZQ7 19-290 limits assumed): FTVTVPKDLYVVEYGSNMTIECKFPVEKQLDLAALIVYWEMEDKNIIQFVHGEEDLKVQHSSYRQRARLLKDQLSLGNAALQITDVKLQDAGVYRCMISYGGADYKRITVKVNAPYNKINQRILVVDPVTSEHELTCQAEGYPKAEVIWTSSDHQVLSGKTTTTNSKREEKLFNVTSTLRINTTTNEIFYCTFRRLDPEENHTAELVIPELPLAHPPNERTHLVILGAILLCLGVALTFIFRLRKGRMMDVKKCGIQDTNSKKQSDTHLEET

B1: IMM2519 (bispecific antibody, human IgG1, kappa)
heavy: QVQLVQSGAEVKKPGASVKVSCKASGYTFTSNWMHWVRQAPGQGLEWMGMIHPNSGSSNYNEKFKSRVTMTRDTSTSTVYMELSSLRSEDTAVYYCARSYYGSSPYYFDYWGQGTLVTVSSASTKGPSVFPLAPSSKSTSGGTAALGCLVKDYFPEPVTVSWNSGALTSGVHTFPAVLQSSGLYSLSSVVTVPSSSLGTQTYICNVNHKPSNTKVDKRVEPKSCDKTHTCPPCPAPELLGGPSVFLFPPKPKDTLMISRTPEVTCVVVDVSHEDPEVKFNWYVDGVEVHNAKTKPREEQYNATYRVVSVLTVLHQDWLNGKEYKCKVSNKALPAPIAATISKAKGQPREPQVYTLPPSREEMTKNQVSLTCLVKGFYPSDIAVEWESNGQPENNYKTTPPVLDSDGSFFLYSKLTVDKSRWQQGNVFSCSVMHEALHNHYTQKSLSLSPGK
light: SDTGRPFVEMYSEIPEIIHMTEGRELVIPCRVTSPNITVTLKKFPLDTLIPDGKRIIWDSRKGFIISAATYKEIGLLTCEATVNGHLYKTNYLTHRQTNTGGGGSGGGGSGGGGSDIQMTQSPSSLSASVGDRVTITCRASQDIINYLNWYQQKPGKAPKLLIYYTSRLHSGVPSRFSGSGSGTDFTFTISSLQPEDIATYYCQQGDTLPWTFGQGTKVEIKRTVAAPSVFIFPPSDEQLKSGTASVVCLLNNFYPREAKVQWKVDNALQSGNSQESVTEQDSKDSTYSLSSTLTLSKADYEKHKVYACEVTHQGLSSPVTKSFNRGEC
notes: Anti-PD-L1 IgG IMM2515H with VEGFR1D2 linked by a (G4S)3 linker to the N-terminus of each light chain; also called recombinant fusion protein
As for B1, the binding result in assay [1] was “binds”.

B2: IMM2518 (bispecific antibody, human IgG1, kappa)
heavy: SDTGRPFVEMYSEIPEIIHMTEGRELVIPCRVTSPNITVTLKKFPLDTLIPDGKRIIWDSRKGFIISAATYKEIGLLTCEATVNGHLYKTNYLTHRQTNTGGGGSGGGGSGGGGSQVQLVQSGAEVKKPGASVKVSCKASGYTFTSNWMHWVRQAPGQGLEWMGMIHPNSGSSNYNEKFKSRVTMTRDTSTSTVYMELSSLRSEDTAVYYCARSYYGSSPYYFDYWGQGTLVTVSSASTKGPSVFPLAPSSKSTSGGTAALGCLVKDYFPEPVTVSWNSGALTSGVHTFPAVLQSSGLYSLSSVVTVPSSSLGTQTYICNVNHKPSNTKVDKRVEPKSCDKTHTCPPCPAPELLGGPSVFLFPPKPKDTLMISRTPEVTCVVVDVSHEDPEVKFNWYVDGVEVHNAKTKPREEQYNATYRVVSVLTVLHQDWLNGKEYKCKVSNKALPAPIAATISKAKGQPREPQVYTLPPSREEMTKNQVSLTCLVKGFYPSDIAVEWESNGQPENNYKTTPPVLDSDGSFFLYSKLTVDKSRWQQGNVFSCSVMHEALHNHYTQKSLSLSPGK
light: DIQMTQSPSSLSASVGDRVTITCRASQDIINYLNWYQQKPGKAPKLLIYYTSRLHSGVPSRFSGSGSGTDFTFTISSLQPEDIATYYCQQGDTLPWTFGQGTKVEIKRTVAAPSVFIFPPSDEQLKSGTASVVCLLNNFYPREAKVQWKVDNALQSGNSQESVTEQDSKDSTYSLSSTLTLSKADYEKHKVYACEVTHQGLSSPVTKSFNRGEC
notes: Anti-PD-L1 IgG IMM2515H with VEGFR1D2 linked by a (G4S)3 linker to the N-terminus of each heavy chain; also called recombinant fusion protein
B2: the “ADCC (%lysis) against Raji-PD-L1 cells by NK92MI cells expressing FcgRIIIa (158V)” value in assay [2] worked out at 6 fold lower than IMM2515H. Also, in assay [3], the Kd (usually a measure of binding affinity in units of concentration) was 0.441 nM; the koff (as a rule, the rate constant with which the complex falls apart) worked out at 0.000218 s⁻¹; the kon (in general, the second-order rate constant of association) amounted to 494000 M⁻¹ s⁻¹.
